# Conditions: N-glycosylation at N138
Substance,other,localisation_or_trafficking,expression_or_secretion
"nicotinic acetylcholine receptor β4 subunit: S140G (sequon disruption), co-expressed with α4: ACh and nicotine EC50","changes, ACh EC50 9.36±1.35 to 16.7±2.1 µM (P<0.01); nicotine EC50 1.48±0.17 to 2.75±0.27 µM (P<0.01); sag to ACh 0.90 to 0.76 (P",–,–
"nicotinic acetylcholine receptor β4 subunit: S140G (sequon disruption), co-expressed with α4",–,"abolishes, relative surface ELISA −0.13±0.22 vs 1.00 (WT), P<0.001",–
"nicotinic acetylcholine receptor β4 subunit: S140G (sequon disruption), co-expressed with α3",–,"abolishes, relative surface ELISA −0.04±0.05 vs 1.00 (WT), P<0.001",no change
"nicotinic acetylcholine receptor β4 subunit: S140G (sequon disruption), co-expressed with α3: nicotine EC50","changes, nicotine EC50 22±4 µM (WT) to 48±4 µM, P<0.05; ACh EC50 not significantly changed",–,–
"nicotinic acetylcholine receptor β4 subunit: M467V+S140G, co-expressed with α3",–,"decreases, relative surface ELISA 0.17±0.02 vs 1.00 (WT), P<0.001",–

# — publication PMC4013067
